The labels stand for the following.
T1: mTSLP-mFc (mouse (mus musculus))
T1 construct: also called 小鼠TSLP
T1 chain: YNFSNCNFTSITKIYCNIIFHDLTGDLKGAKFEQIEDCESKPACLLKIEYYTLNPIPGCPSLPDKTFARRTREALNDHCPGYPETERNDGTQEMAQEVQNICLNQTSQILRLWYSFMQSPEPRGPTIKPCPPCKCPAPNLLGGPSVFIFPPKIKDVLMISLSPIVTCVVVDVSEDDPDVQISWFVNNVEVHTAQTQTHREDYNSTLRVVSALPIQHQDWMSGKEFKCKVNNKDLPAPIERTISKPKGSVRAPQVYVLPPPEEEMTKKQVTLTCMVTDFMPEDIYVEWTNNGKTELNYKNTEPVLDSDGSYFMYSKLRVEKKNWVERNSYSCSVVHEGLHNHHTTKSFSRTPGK

T2: hTSLP1-m-mFc (human (homo sapiens)); mouse (mus …, limits assumed)
T2 construct: also called 人TSLP
T2 chain: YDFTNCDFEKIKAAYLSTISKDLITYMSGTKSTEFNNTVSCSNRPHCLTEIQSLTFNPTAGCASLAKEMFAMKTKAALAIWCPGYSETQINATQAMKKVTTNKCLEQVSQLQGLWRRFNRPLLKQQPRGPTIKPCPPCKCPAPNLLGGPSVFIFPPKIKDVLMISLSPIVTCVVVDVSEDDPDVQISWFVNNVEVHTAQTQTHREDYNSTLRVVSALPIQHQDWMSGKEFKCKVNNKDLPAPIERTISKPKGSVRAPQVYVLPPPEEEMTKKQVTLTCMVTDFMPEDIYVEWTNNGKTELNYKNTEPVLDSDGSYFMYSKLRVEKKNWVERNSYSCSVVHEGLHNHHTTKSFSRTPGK

T3: mfTSLP1-m-mFc (cynomolgus monkey (Macaca …))
T3 construct: also called 食蟹猴TSLP
T3 chain: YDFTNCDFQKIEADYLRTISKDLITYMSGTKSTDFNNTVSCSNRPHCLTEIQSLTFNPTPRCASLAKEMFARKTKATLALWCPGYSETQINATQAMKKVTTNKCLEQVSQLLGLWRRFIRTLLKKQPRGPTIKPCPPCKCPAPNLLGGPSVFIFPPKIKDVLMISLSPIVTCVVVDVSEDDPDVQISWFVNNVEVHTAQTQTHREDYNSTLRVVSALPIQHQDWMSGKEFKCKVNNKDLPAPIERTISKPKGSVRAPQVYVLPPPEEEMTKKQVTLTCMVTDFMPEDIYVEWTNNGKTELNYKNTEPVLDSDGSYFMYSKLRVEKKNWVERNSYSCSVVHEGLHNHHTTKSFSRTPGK

T4: mfTSLP (cynomolgus monkey (Macaca fascicularis))
T4 construct: also called 猴TSLP; 食蟹猴TSLP
T4 chain: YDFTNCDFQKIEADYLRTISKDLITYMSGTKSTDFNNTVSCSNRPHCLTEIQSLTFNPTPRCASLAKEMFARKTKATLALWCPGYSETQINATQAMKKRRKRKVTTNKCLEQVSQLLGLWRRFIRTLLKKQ

B1: H1A10+L3E8-M1 (antibody, human IgG4, V domains shown)
VH: QVQLVQSGAEVKKPGASVKVSCKASGYAFSNYWMNWVRQAPGQGLEWMGQIFPGDSDTDYDQKFQGRVTMTRDTSTSTVYMELSSLRSEDTAVYYCARAGYYRGYYAMDYWGQGTTVTVSS
VL: EIVMTQSPATLSVSPGERATLSCSVSSSISSSNLHWYQQKPGQAPRPWIYGTSNLASGIPARFSGSGSGTEFTLTISSLQSEDFAVYYCQQWSSYPLTFGQGTKLEIK
notes: also called L3E8人源化突变体; 人源化抗TSLP单克隆抗体
B2: H1A10+L3E8-M3 (antibody, IgG4, V domains shown)
VH: B1 VH
VL: B1 VL with L21I, S22T
notes: also called L3E8人源化突变体
B3: H1A10+L3E8 (antibody, V domains shown)
VH: B1 VH
VL: B1 VL with L21I, S22T, R46K, T73S, L79V, Q80E, S81A, F84A
B4: H1A10+L3E8-M4 (antibody, IgG4, V domains shown)
VH: B1 VH
VL: B1 VL with L79M, Q80E, S81A
notes: also called L3E8人源化突变体
B5: H1A10+L3E8-M2 (antibody, IgG4, V domains shown)
VH: B1 VH
VL: B1 VL with R46K
notes: also called L3E8人源化突变体
B6: S2B1-IgG4 (antibody, V domains shown)
VH: EVKLQQSGAELVRPGSSVKISCKASGYAFSNYWMNWVKQRPGQGLEWIGQIFPGDGDTDYNGKFKGKATLTADKSSSTAYMQLSSLTSEDSAVYFCARAGYYRGYYAMDYWGQGTSVTVSA
VL: EIVLTQSPALMAASPGEKVTITCSVSSSISSSNLHWYQQKSETSPKPWIYGTSNLASGVPVRFSGSGSGTSYSLTISSMEAEDAATYYCQQWSSYPLTFGAGTKLEIK
B7: Tezepelumab (antibody, V domains shown)
VH: QMQLVESGGGVVQPGRSLRLSCAASGFTFRTYGMHWVRQAPGKGLEWVAVIWYDGSNKHYADSVKGRFTITRDNSKNTLNLQMNSLRAEDTAVYYCARAPQWELVHEAFDIWGQGTMVTVSS
VL: SYVLTQPPSVSVAPGQTARITCGGNNLGSKSVHWYQQKPGQAPVLVVYDDSDRPSWIPERFSGSNSGNTATLTISRGEAGDEADYYCQVWDSSSDHVVFGGGTKLTVL
notes: also called AMG 157; MEDI9929
B8: H1A10+L3E8-M1-IgG1m3 (antibody, V domains shown)
VH: B1 VH
VL: B1 VL
notes: IgG1m3 version; also called L3E8人源化突变体(IgG1m3版本)
B9: H1A10+L3E8-M3-IgG1m3 (antibody, V domains shown)
VH: B1 VH
VL: B1 VL with L21I, S22T
notes: as for B8
B10: H1A10+L3E8-M4-IgG1m3 (antibody, V domains shown)
VH: B1 VH
VL: B1 VL with L79M, Q80E, S81A
notes: as for B8
B11: H1A10+L3E8-M2-IgG1m3 (antibody, V domains shown)
VH: B1 VH
VL: B1 VL with R46K
notes: as for B8

Substitutions are numbered along the chain they refer to.

These results are taken from patent publication CN111171150A (BEIJING ZHIREN MEIBO BIOTECHNOLOGY CO LTD, dated 2020).

For orientation: Kd means a measure of binding affinity in units of concentration.

The target in the first experiment is T1, mTSLP-mFc. Briefly: ELISA on coated mTSLP-mFc (1 μg/mL), HRP anti-human IgG. A general note: In an ELISA, binding on a coated surface is turned into a signal by an enzyme label.
For the molecule B1, the binding result is on record as “no binding”.
In the case of B2, the binding result is given as “no binding”.
For the molecule B3, the binding result is on record as “no binding”.
In the case of B4, the binding result is reported as “no binding”.
As for B5, the binding result is “no binding”.

Another experiment addresses T2, hTSLP1-m-mFc. In words: ELISA on coated hTSLP1-m-mFc (1 μg/mL), HRP anti-human IgG.
Regarding B1, the binding result is given as “binds”.
B2: the binding result is listed as “binds”.
Turning to B3, the binding result is “binds”.
On the same count and under the same terms, under B4 stands “binds”; under B5, “binds”.

The next experiment has as its target T3, mfTSLP1-m-mFc. In words: ELISA on coated mfTSLP1-m-mFc (1 μg/mL), HRP anti-human IgG.
Regarding B1, the binding result is given as “binds”.
Consider B2, for which the binding result is listed as “binds”.
Turning to B3, the binding result is recorded as “binds”.
Regarding B4, the binding result is “binds”.
Still for that read-out and setting: then B5, with “binds”.

For a further experiment, the target named is T5, hTSLP1-m-His (human (homo sapiens), UniProt Q969D9 29-159).
T5 construct: Long version of the human TSLP extracellular region, furin site deleted, His tag at the C-terminus, made in HEK293; also called hTSLP-m-his; not shown: C-terminal His tag
In words: SPR (Biacore X100) as in Example 3.1, antibody captured, hTSLP as analyte. In general terms: In SPR one partner is held on a chip, and binding of the other changes the refractive index at the surface.
In turn, B6 displayed an equilibrium dissociation constant (Kd) of 0.012 nM.

The target in another experiment is T4, mfTSLP. Briefly: SPR (Biacore X100) as in Example 3.1, antibody captured, mfTSLP as analyte.
In turn, B7 had a Kd of 0.00816 nM.
The molecule B1 showed an equilibrium dissociation constant (Kd) of 2.66 nM.
On the same count and under the same terms, then B2, with 2.37 nM.
In turn, B4 returned a Kd of 2.63 nM.
Molecule B5 registered a Kd of 2.59 nM.

The next experiment has as its target T5, hTSLP1-m-His. In words: competition ELISA on coated hTSLP1-m-his; competitor Tezepelumab-mIgG2a; HRP anti-human IgG.
Turning to B8, the binding result is on record as “binds”.
With B9, the binding result is “binds”.
As to B10, the binding result is recorded as “binds”.
Same read-out and setting: under B11 stands “binds”.

For the next experiment, the target named is T5, hTSLP1-m-His. Briefly: SPR (Biacore X100), antibody captured by anti-human IgG (Fc) on CM5, hTSLP1-m-his as analyte, 25 C, 1:1 fit.
B6 yielded a Kd of 0.0092 nM.
